Bridge positions count the residues as written; N and C are the ends. Square brackets hold non-standard residues; d marks the D form. Ends that are not written are not given here. Trp(6-F) = N[C@@H](Cc1c[nH]c2cc(F)ccc12)C(=O)O; hArg = N=C(N)NCCCC[C@H](N)C(=O)O

Here are results for 17 molecules from patent US20200283478A1 (Genentech, published 2020).

B1: Compound 228 (peptide)
peptide: Ac-SFAFPGWNLV[hArg]IGLLR-NH2
SMILES: CC[C@H](C)[C@H](NC(=O)[C@H](CCCCNC(=N)N)NC(=O)[C@@H](NC(=O)[C@H](CC(C)C)NC(=O)[C@H](CC(N)=O)NC(=O)[C@H](Cc1c[nH]c2ccccc12)NC(=O)CNC(=O)[C@@H]1CCCN1C(=O)[C@H](Cc1ccccc1)NC(=O)[C@H](C)NC(=O)[C@H](Cc1ccccc1)NC(=O)[C@H](CO)NC(C)=O)C(C)C)C(=O)NCC(=O)N[C@@H](CC(C)C)C(=O)N[C@@H](CC(C)C)C(=O)N[C@@H](CCCNC(=N)N)C(N)=O
B2: Compound 232 (peptide)
peptide: Ac-SFAFPGWNLK[hArg]IGLLR-NH2
SMILES: CC[C@H](C)[C@H](NC(=O)[C@H](CCCCNC(=N)N)NC(=O)[C@H](CCCCN)NC(=O)[C@H](CC(C)C)NC(=O)[C@H](CC(N)=O)NC(=O)[C@H](Cc1c[nH]c2ccccc12)NC(=O)CNC(=O)[C@@H]1CCCN1C(=O)[C@H](Cc1ccccc1)NC(=O)[C@H](C)NC(=O)[C@H](Cc1ccccc1)NC(=O)[C@H](CO)NC(C)=O)C(=O)NCC(=O)N[C@@H](CC(C)C)C(=O)N[C@@H](CC(C)C)C(=O)N[C@@H](CCCNC(=N)N)C(N)=O
B3: Compound 227 (peptide)
peptide: Ac-ESFPGWNLV[hArg]IGLLR-NH2
SMILES: CC[C@H](C)[C@H](NC(=O)[C@H](CCCCNC(=N)N)NC(=O)[C@@H](NC(=O)[C@H](CC(C)C)NC(=O)[C@H](CC(N)=O)NC(=O)[C@H](Cc1c[nH]c2ccccc12)NC(=O)CNC(=O)[C@@H]1CCCN1C(=O)[C@H](Cc1ccccc1)NC(=O)[C@H](CO)NC(=O)[C@H](CCC(=O)O)NC(C)=O)C(C)C)C(=O)NCC(=O)N[C@@H](CC(C)C)C(=O)N[C@@H](CC(C)C)C(=O)N[C@@H](CCCNC(=N)N)C(N)=O
B4: Compound 230 (peptide)
peptide: Ac-DSYPGWNLV[hArg]IGLLR-NH2
SMILES: CC[C@H](C)[C@H](NC(=O)[C@H](CCCCNC(=N)N)NC(=O)[C@@H](NC(=O)[C@H](CC(C)C)NC(=O)[C@H](CC(N)=O)NC(=O)[C@H](Cc1c[nH]c2ccccc12)NC(=O)CNC(=O)[C@@H]1CCCN1C(=O)[C@H](Cc1ccc(O)cc1)NC(=O)[C@H](CO)NC(=O)[C@H](CC(=O)O)NC(C)=O)C(C)C)C(=O)NCC(=O)N[C@@H](CC(C)C)C(=O)N[C@@H](CC(C)C)C(=O)N[C@@H](CCCNC(=N)N)C(N)=O
B5: Compound 229 (peptide)
peptide: Ac-MESFPGWNLV[hArg]IGLLR-NH2
SMILES: CC[C@H](C)[C@H](NC(=O)[C@H](CCCCNC(=N)N)NC(=O)[C@@H](NC(=O)[C@H](CC(C)C)NC(=O)[C@H](CC(N)=O)NC(=O)[C@H](Cc1c[nH]c2ccccc12)NC(=O)CNC(=O)[C@@H]1CCCN1C(=O)[C@H](Cc1ccccc1)NC(=O)[C@H](CO)NC(=O)[C@H](CCC(=O)O)NC(=O)[C@H](CCSC)NC(C)=O)C(C)C)C(=O)NCC(=O)N[C@@H](CC(C)C)C(=O)N[C@@H](CC(C)C)C(=O)N[C@@H](CCCNC(=N)N)C(N)=O
B6: Compound 233 (peptide)
peptide: Ac-MESFPGWNLK[hArg]IGLLR-NH2
SMILES: CC[C@H](C)[C@H](NC(=O)[C@H](CCCCNC(=N)N)NC(=O)[C@H](CCCCN)NC(=O)[C@H](CC(C)C)NC(=O)[C@H](CC(N)=O)NC(=O)[C@H](Cc1c[nH]c2ccccc12)NC(=O)CNC(=O)[C@@H]1CCCN1C(=O)[C@H](Cc1ccccc1)NC(=O)[C@H](CO)NC(=O)[C@H](CCC(=O)O)NC(=O)[C@H](CCSC)NC(C)=O)C(=O)NCC(=O)N[C@@H](CC(C)C)C(=O)N[C@@H](CC(C)C)C(=O)N[C@@H](CCCNC(=N)N)C(N)=O
B7: Compound 236 (peptide)
peptide: WNLV[hArg]IG-NH2
modifications: N-terminus assumed
SMILES: CC[C@H](C)[C@H](NC(=O)[C@H](CCCCNC(=N)N)NC(=O)[C@@H](NC(=O)[C@H](CC(C)C)NC(=O)[C@H](CC(N)=O)NC(=O)[C@@H](N)Cc1c[nH]c2ccccc12)C(C)C)C(=O)NCC(N)=O
notes: also called WNLV(homoR)IG-NH2

In one experiment the target is T1, proprotein convertase subtilisin/kexin type 9 (PCSK9) (human, UniProt Q8NBP7 31-692).
T1 construct: His-tagged full-length PCSK9 in TR-FRET and SPR, biotinylated in phage ELISA; secreted protein is autoprocessed (prodomain plus catalytic/CRD chain starting at S153); also called rec.PCSK9; His-PCSK9
T1 sequence (Q8NBP7 other isoform, or with tags, fused parts or gaps limits assumed): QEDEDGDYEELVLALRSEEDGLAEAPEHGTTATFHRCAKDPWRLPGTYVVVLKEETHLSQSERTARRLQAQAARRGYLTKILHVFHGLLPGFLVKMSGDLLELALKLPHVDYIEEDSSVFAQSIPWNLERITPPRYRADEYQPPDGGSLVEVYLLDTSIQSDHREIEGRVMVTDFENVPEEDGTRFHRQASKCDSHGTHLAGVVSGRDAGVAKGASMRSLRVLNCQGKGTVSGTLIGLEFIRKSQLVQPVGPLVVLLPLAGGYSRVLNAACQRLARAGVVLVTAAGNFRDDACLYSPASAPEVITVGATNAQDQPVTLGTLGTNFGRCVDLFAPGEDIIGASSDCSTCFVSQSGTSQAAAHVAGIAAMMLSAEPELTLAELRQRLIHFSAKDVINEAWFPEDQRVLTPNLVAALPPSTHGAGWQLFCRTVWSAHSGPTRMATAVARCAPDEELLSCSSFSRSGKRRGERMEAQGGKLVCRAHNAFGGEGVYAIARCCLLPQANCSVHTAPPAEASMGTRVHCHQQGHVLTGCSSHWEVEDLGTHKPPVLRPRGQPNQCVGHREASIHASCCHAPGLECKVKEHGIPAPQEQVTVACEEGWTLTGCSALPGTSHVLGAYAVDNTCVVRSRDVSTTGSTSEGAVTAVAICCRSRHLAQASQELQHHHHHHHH
In words: phage spot ELISA. For orientation: In an ELISA, binding on a coated surface is turned into a signal by an enzyme label.
As to TAFTSWEEYLDWVGSGCMEAWQCSLA [SEQ ID NO 337], the ELISA is 2.73 and the s/n ratio came to 24.6.

In the case of TAFTSWEEYLDWVGSGCVKVGLSWIGDCNS [SEQ ID NO 334], the ELISA came to 2.66 and the s/n ratio was 23.9.

For the molecule TAFTSWEEYLDWVGSGDCNLWGDDGKYRLCF [SEQ ID NO 333], the ELISA was found to be 2.72 and the s/n ratio was 23.6.

For TAFTSWEEYLDWVGSGCWTYLRGGCSVT [SEQ ID NO 339], the ELISA turned out to be 3.07 and the s/n ratio is 22.1.

For the molecule TAFTSWEEYLDWVGSGSYRGAWSVFGGSTD [SEQ ID NO 336], the ELISA is 2.79 and the s/n ratio came out at 19.5.

As for TAFTSWEEYLDWVGSGQCYPWCRL [SEQ ID NO 338], the ELISA amounted to 2.71 and the s/n ratio is 25.1.

Consider TAFTSWEEYLDWVGSGGVLGVGGMWIA [SEQ ID NO 335], for which the ELISA worked out at 1.45 and the s/n ratio is 12.8.

Another experiment deals with T2, PCSK9Δhelix (human, Chemically biotinylated in the phage ELISAs; the site is not given.).
T2 construct: construct M1-Q692 with engineered TEV site, cleaved by TEV; also called His-PCSK9Δhelix; open groove PCSK9Δhelix
T2 sequence (prodomain, as listed by the source mutant limits assumed, chain 1 of 2): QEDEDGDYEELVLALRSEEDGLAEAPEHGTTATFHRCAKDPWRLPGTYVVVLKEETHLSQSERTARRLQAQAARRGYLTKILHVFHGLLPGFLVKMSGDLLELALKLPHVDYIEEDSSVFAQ
T2 sequence (chain, as listed by the source mutant limits assumed, chain 2 of 2): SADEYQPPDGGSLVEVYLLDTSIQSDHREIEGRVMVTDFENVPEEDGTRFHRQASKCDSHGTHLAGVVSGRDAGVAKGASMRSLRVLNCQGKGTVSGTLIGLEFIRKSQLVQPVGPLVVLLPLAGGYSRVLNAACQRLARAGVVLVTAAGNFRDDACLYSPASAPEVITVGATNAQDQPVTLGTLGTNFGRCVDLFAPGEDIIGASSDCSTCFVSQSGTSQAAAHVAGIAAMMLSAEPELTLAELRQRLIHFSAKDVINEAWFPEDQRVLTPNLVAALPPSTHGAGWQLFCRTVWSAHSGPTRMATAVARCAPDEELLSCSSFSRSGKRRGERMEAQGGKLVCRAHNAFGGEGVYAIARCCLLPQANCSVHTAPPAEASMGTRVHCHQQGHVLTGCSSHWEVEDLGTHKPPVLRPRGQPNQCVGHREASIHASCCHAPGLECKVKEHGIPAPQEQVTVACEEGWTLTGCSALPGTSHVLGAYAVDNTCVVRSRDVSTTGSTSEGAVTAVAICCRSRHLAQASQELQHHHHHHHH
In words: phage spot ELISA.
With TAFTSWEEYLDWVGSGCVKVGLSWIGDCNS [SEQ ID NO 334], the ELISA came to 2.74 and the s/n ratio was found to be 25.1.

As for TAFTSWEEYLDWVGSGDCNLWGDDGKYRLCF [SEQ ID NO 333], the ELISA amounted to 2.81 and the s/n ratio stood at 23.

Take TAFTSWEEYLDWVGSGCWTYLRGGCSVT [SEQ ID NO 339]: the ELISA was found to be 3.05 and the s/n ratio turned out to be 20.2.

Turning to TAFTSWEEYLDWVGSGSYRGAWSVFGGSTD [SEQ ID NO 336], the ELISA is 2.69 and the s/n ratio was 17.2.

In the case of TAFTSWEEYLDWVGSGQCYPWCRL [SEQ ID NO 338], the ELISA turned out to be 2.65 and the s/n ratio came out at 29.2.

For the molecule TAFTSWEEYLDWVGSGGVLGVGGMWIA [SEQ ID NO 335], the ELISA was found to be 2.61 and the s/n ratio stood at 24.4.

For another experiment, the target named is T3, His-tagged, full-length PCSK9 (human, UniProt Q8NBP7 31-692).
T3 construct: The secreted protein is autocleaved into a prodomain and a catalytic/Cys-rich chain that starts at S153; also called His-PCSK9
T3 sequence (Q8NBP7 other isoform, or with tags, fused parts or gaps limits assumed): as the sequence (Q8NBP7 other isoform, or with tags, fused parts or gaps limits assumed) above
In words: TR-FRET competition; His-PCSK9, competitor EGF(A)-Fc. (TR-FRET usually uses a lanthanide donor and a delayed reading to cut background.)
Procedure: (§1) Signal generation in the PCSK9 binding assays was dependent upon the binding interaction to bring into close proximity the His-tag on the PCSK9 and the Fc-tag on the ligand. Anti-His-APC was bound to the His-tag, and anti-Fc-europium was bound to the Fc-tag.
(§2) Compounds were solubilized and dilutions were prepared in DMSO. […] The plate was centrifuged to mix the well contents and allowed to incubate for 30 min. […] The normalized TR-FRET ratios were plotted as a function of the compound concentrations, and the IC₅₀ values were determined using a 4-parameter logistic regression.
For the molecule B1, the IC50 – broadly, the concentration that inhibits the measured activity by half – was 1.3 µM.

Take B2: the concentration for half-maximal inhibition (IC50) was determined as 0.93 µM.

For B3, the half-maximal inhibitory concentration (IC50) turned out to be 2.5 µM.

For B4, the IC50 came to 2.3 µM.

B5 registered a 50% inhibitory concentration (IC50) of 0.81 µM.

B6: the IC50 was determined as 3.1 µM.

The molecule WNLV[hArg]IGQR (also: further groups not given here, Structure printed only as a drawing) [Compound 239] registered an IC50 of 32 µM.

The molecule WNLV[hArg]IGNR (also: further groups not given here, Structure printed only as a drawing) [Compound 240] displayed a 50% inhibitory concentration (IC50) of 31 µM.

As for B7, the IC50 is ≥ 50 µM.

Ac-TVFTS[Trp(6-F)]EEYLDWVGSGCRLPWNLQRIGLPC-NH2 (disulfide 17-30 (inferred)) [Compound 241] displayed a half-maximal inhibitory concentration (IC50) of 1.6 µM.

The target in a further experiment is T4, His-tagged PCSK9Δhelix (human, UniProt Q8NBP7 31-152; Q8NBP7 168-692).
T4 construct: Construct M1-Q692 with engineered TEV site, cut by TEV protease; new N-terminus of the catalytic domain is S-A168; also called His-PCSK9Δhelix
T4 sequence (Q8NBP7 31-152, stated change not applied, chain 1 of 2): as the sequence (prodomain, as listed by the source mutant limits assumed, chain 1 of 2) above
T4 sequence (Q8NBP7 other isoform, or with tags, fused parts or gaps mutant, chain 2 of 2): as the sequence (chain, as listed by the source mutant limits assumed, chain 2 of 2) above
In words: TR-FRET competition; His-PCSK9Δhelix, competitor Ab20.
Procedure: as §1, §2
As for B1, the IC50 came to 13 µM.

In turn, B2 registered an IC50 of 13 µM.

As to B3, the 50% inhibitory concentration (IC50) is 24 µM.

Molecule B4 yielded an IC50 of 24 µM.

With B5, the 50% inhibitory concentration (IC50) was determined as 8.1 µM.

B6 returned a concentration for half-maximal inhibition (IC50) of 50 µM.

In turn, WNLV[hArg]IGQR (also: further groups not given here, Structure printed only as a drawing) [Compound 239] returned a half-inhibitory concentration (IC50) of 1.2 µM.

In turn, WNLV[hArg]IGNR (also: further groups not given here, Structure printed only as a drawing) [Compound 240] showed an IC50 of 0.92 µM.

As for B7, the half-maximal inhibitory concentration (IC50) worked out at 22 µM.

Turning to Ac-TVFTS[Trp(6-F)]EEYLDWVGSGCRLPWNLQRIGLPC-NH2 (disulfide 17-30 (inferred)) [Compound 241], the IC50 was found to be 0.1 µM.
